“Also recorded” adds a separate entry of the source.
How the values were obtained:
8C2 mAb = assay: Competitive ELISA of 8C2 with topotecan and SN38 (BSA-topotecan coated); assay type: binding, murine; conditions: 8C2 held constant at 10 nM; read-out: IC50 in competitive ELISA vs intact 8C2
Procedure: A competitive ELISA was employed to determine the affinity of intact 8C2 mAb for SN38 and topotecan. A BSA-topotecan conjugate was synthesized and immobilized as previously described (Shah et al., Int J Pharm. 2014; 465(1-2):228-238. doi:10.1016/j.ijpharm.2014.01.038) 8C2 concentration was held constant at 10 nM with increasing concentrations of topotecan or SN38. 8C2 drug samples were incubated for 2 hours at room temperature with agitation. Following incubation, wells were washed three times with 250 μL of PBS-T and three times with dH2O. Wells were then incubated with a 1:500 dilution anti-mouse AP conjugate secondary in PBS-T with 3% BSA for 1 h. After washing, 250 μL of 4 mg/ml PNPP in diethanolamine buffer pH 9.8 with absorbance being read at 405 nm. The change in absorbance over time data was fit to a four-parameter function in GraphPad Prism 7.

LS174T cells = assay: Competitive cell cytotoxicity assay with LS174T cells; assay type: cell-based
Procedure: Log-phase MOLM-14, Ramos (RA 1), HT-29, LS174T, or NCI-N87 cells were seeded in 96-well microtiter plates at a density of 20,000 cells/well, 20,000 cells/well, 5,000 cells/well, 5,000 cells/well, and 10,000 cells/well, respectively, in 100 μL of culture medium. HT-29, LS174T, and NCI-N87 cells were allowed to adhere for 24 h before cell culture media was aspirated and replaced with 100 μL of fresh media containing a range of treatment for, 48 (LS174T), 96 (NCI-N87), or 120 (HT-29) h. MOLM-14 and Ramos cells were re-suspended with treatment solutions, where 100 μL of cell-treatment suspension was aliquoted into wells of a 96-well plate for 24 h. Treatment solutions consisted of calicheamicin, MMAE, topotecan, or SN38 with or without immunized animal plasma, purified anti-drug antibody, or antibody-drug conjugate (ADC) with or without plasma or anti-drug antibody. For MOLM-14 and Ramos cells, 25 μL of MTT solution (5 mg/mL in pH 7.4 1× PBS) was added directly to wells following treatment incubation. For adherent cells, treatment media was aspirated from wells and cells were washed three times with 100 μL of fresh media. Following the final wash, 100 μL of complete media and 25 μL of MTT solution were added to each well. Cells were incubated for 4 h in order to allow cells to reduce MTT to formazan dye. […] Formazan dye was measured at 570 nm and normalized by cell debris at 690 nm.

Trastuzumab deruxtecan = assay: Indirect ELISA of purified sdAb on trastuzumab deruxtecan; assay type: binding
From the text: FIG. 16. SDS-PAGE and Indirect ELISA.
FIG. 18. SDS-PAGE and Indirect ELISA.

[1] = SPR dissociation screening on DM1-Biotin chip; assay type: binding; conditions: 20 min dissociation phase
Procedure: Preliminary screening of DM1/4 binders were performed using a neutravidin SPR chip with DM1-Biotin on the left channel. Phagemid purified sdAbs were flowed over the SPR chip for 2 minutes at a flow rate of 25 ul/min. After binding, sdAb was dissociated for 20 minutes. Observed sensorgrams were fit to an individual dissociation rate constant for each construct. Equilibrium and kinetic binding of 3A2 was assessed using a CM5 SPR chip with TDM1 immobilized on the left channel. […] Rate constants for 3A2-TDM1 association and dissociation were obtained through fitting of the observed sensorgrams for the 1.25, 2.5, 5, 7.5 and 10 nM injections to a 1:1 Langmuir binding model.

MOLM-14 cells = assay: MTT cytotoxicity of calicheamicin on MOLM-14 cells; assay type: cell-based, human; conditions: 24 h, 100 μM peptide or sdAb
Procedure: (§1) Log-phase MOLM-14, Ramos (RA 1), HT-29, LS174T, or NCI-N87 cells were seeded in 96-well microtiter plates at a density of 20,000 cells/well, 20,000 cells/well, 5,000 cells/well, 5,000 cells/well, and 10,000 cells/well, respectively, in 100 μL of culture medium. HT-29, LS174T, and NCI-N87 cells were allowed to adhere for 24 h before cell culture media was aspirated and replaced with 100 μL of fresh media containing a range of treatment for, 48 (LS174T), 96 (NCI-N87), or 120 (HT-29) h. MOLM-14 and Ramos cells were re-suspended with treatment solutions, where 100 μL of cell-treatment suspension was aliquoted into wells of a 96-well plate for 24 h. Treatment solutions consisted of calicheamicin, MMAE, topotecan, or SN38 with or without immunized animal plasma, purified anti-drug antibody, or antibody-drug conjugate (ADC) with or without plasma or anti-drug antibody. For MOLM-14 and Ramos cells, 25 μL of MTT solution (5 mg/mL in pH 7.4 1× PBS) was added directly to wells following treatment incubation. For adherent cells, treatment media was aspirated from wells and cells were washed three times with 100 μL of fresh media. Following the final wash, 100 μL of complete media and 25 μL of MTT solution were added to each well. Cells were incubated for 4 h in order to allow cells to reduce MTT to formazan dye. Once MTT was reduced, 100 μL of 10% SDS prepared in 0.01 M HCl was added to each well and incubated overnight to solubilize the formazan crystals. Formazan dye was measured at 570 nm and normalized by cell debris at 690 nm.
(§2) Fresh media containing a range of treatment were pre-incubated with or without 100 μM purified sdAb at room temperature for 30 minutes. Log-phase MOLM-14 cells were seeded in 96-well microtiter plates at a density of 20,000 cells/well, and were re-suspended with treatment solutions, where 100 μL of cell-treatment suspension was aliquoted into wells of a 96-well plate for 24 h. 25 μL of MTT solution (5 mg/mL in pH 7.4 1× PBS) was added directly to wells following treatment incubation. […] Formazan dye was measured at 570 nm and normalized by cell debris at 690 nm.

Ramos cells = assay: MTT cytotoxicity of calicheamicin on Ramos cells; assay type: cell-based; conditions: 24 h
Procedure: as §1, §2

[2] = Screening of llama sdAb phage clones against calicheamicin conjugates (FIG. 25); assay type: binding
Procedure: A master plate was generated by inoculating a single colony into wells of a 96-well round-bottom culture plate filled with […] 2×TY supplemented with 100 μg/mL ampicillin, 2% (wt/vol) glucose and 10% (vol/vol) glycerol, and grown overnight at 37° C. These wells were then used to inoculate wells of 96-deepwell plates containing 1 mL of 2×TY medium (100 μg/mL ampicillin+0.1% (wt/v) glucose per well). Plates were incubated them for 3 h at 37° C. and 250 rpm until OD600≈0.5. Nanobody expression was induced with 4 μL of 0.5 M IPTG per well (final concentration of 2 mM) and incubated for an additional 15-24 h at 37° C. and 250 rpm. Nunc Maxisorp 96-well plates were coated as described previously. Plates were washed three times with PBST and blocked with MPBS for 2 h at RT. […] Plates were then washed three times with PBST, where bound phage was detected using an anti-HA tag HRP-conjugated Ab diluted 1:1000 in PBST. Following incubated and five washed with PBST, 100 μL of 1-Step Turbo TMB-ELISA solution was added to each well and incubated for 30 minutes. The reaction was quenched by adding 100 μL of Stop solution to each well and absorbance was measured at 450 nm.
50 μl Dynabeads-calicheamicin were blocked with MPBS (PBS+2% non-fat dry milk) at RT for 30 minutes. Following pre-incubation with 1:50 preimmunized llama plasma, phage solutions were incubated with beads at RT for 30 minutes. […]

[3] = sdAb CG4 ELISA and Dynabeads binding assay; conditions: for actual fold reduction considering background: 10 μM calicheamicin
Procedure: Nunc Maxisorp 96-well plates were coated with 4 μg/ml Cetuximab or Cetuximab-calicheamicin, or 5 μg/ml Avidin. Plates were washed three times with PBST and three times with dH2O, and blocked with MPBS for 2 h at RT. For the Avidin coated plates, plates were washed three times with PBST and incubated with 1 μM Biotin-Calicheamcin. Plates were then washed three times with PBST and incubated with increasing concentration of purified sdAb CG4 (G4 from FIG. 25) at RT for 2 h, with or without pre-incubation with free Calicheamicin at 10 μM. Plates were then washed three times with PBST, where bound sdAb was detected using an anti-His tag HRP-conjugated Ab diluted 1:1000 in MPBST. Following incubated and five washed with PBST, 100 μL of 1-Step Turbo TMB-ELISA solution was added to each well and incubated for 30 minutes. The reaction was quenched by adding 100 μL of Stop solution to each well and absorbance was measured at 450 nm. Alternatively, wells can also be incubated with 1:1000 diluted anti-His tag AP-conjugated Ab, instead of HRP conjugated Ab. After washing, 4 mg/ml PNPP in diethanolamine buffer pH 9.8 with absorbance being read at 405 nm.
Calicheamicin conjugated dynabeads were washed with PBST and blocked with MPBS for 30 min. Beads were washed three times with PBST and incubated with sdAb for 30 minutes. Bound sdAb were detected with 1:1000 diluted anti-His tag HRP-conjugated Ab. After washed with PBST, beads were resuspended with 500 μL of 1-Step Turbo TMB-ELISA solution and incubated for 30 minutes. The reaction was quenched by adding Stop solution, and absorbance was measured at 450 nm.

CC[C@@]1(O)C(=O)OCc2c1cc1n(c2=O)Cc2cc3c(CN(C)C)c(O)ccc3nc2-1 [topotecan, reference compound]
IC50 (8C2 mAb): 9.3 nM
topotecan concentration at which significant cell death was observed (LS174T cells; absence of 8C2 or 8C2 scFv): 2.5 nM

B1: TA2 (protein)
VHH: QVQLQESGGGLVQPGGSLRVSCAASGFTFSSYYMSWVRQAPGKGLEWVSAINTGTGSTYYADSVKGRFTISSDNAKNTVYLQMSSLKPEDTALYYCARSSLEGRVEKPYDYWGQGTQVTVSS
modifications: TA2 clone
binding to trastuzumab deruxtecan (Trastuzumab deruxtecan): concentration-dependent binding

B2: 8C2 scFv (protein)
scFv: EVQLQQSGAELVKPGASVKLSCTASGFNIKDTYIHWVKQRPEQGLEWIGMIDLANDNTKYDPKFQGKATIITDTSSNKAYLQVSSLTSEDTAVYYCATWGAIITLGGWGQGTLVTVSAAKGGGGSGGGGSGGGGSGGGGSDIQMTQSPASLSASVGETVTITCRASGNIHNSLAWYQQIKGRSPQLLVYNAKTLADGVPSRFSGSGSGTQYSLKINSLHPEDFGSYYCQHFWSTPFTFGSGTKLEIKRENLYFQG
modifications: 8C2 scFv
effect on topotecan cytotoxicity (LS174T cells; topotecan with 8C2 mAb or scFv): right-shifted; also recorded: increased the viability

B3: DT3H3 (protein)
VHH: EVQLVESGGGLVQPGGSLRLSCAASGRTFSHDHMGWFRQAPGKEREFVAAISWTSSTYYGDSVKGRFTISRSNAKNTVYLQMNSLKPEDTAIYYCSWGVGYWGQGTQVTVSS
dissociation kinetics [1]: longest dissociation rates; also recorded: longer dissociation rates

B4: CG4: Anti-Calicheamicin sdAb, SEQ ID NO:12 (protein)
VHH: QVQLQESGGGLVQAGGSLRLSCAASGRTISGYAMGWFRQAPGKERDLVAAISRSGTSTYYADSVKGRFTISRDNAKNTVYLQMNSLKPEDTAVYYCNAPGGIWGQGTQVTVSS
modifications: CG4
fold change of calicheamicin IC50 (MOLM-14 cells): 15.4 fold
fold inhibition of calicheamicin cytotoxicity (IC50 shift) (Ramos cells): 6.34 fold
effect of 1 μM free calicheamicin on clone binding ([2]; rescreen of five colonies): only clone inhibited; also recorded: loss of binding signal
binding to dynabeads-calicheamicin ([2]; single colonies): high binding
fold decrease of CG4 binding signal by 10 μM calicheamicin ([3]; avidin (biotin-calicheamicin) coated plates, 64 μM CG4): 2 fold
actual fold reduction considering background ([3]; avidin coated plates): ~4.3 fold
binding to calicheamicin conjugates vs CG4 concentration ([3]; cetuximab-calicheamicin ELISA and Dynabeads-calicheamicin): apparent calicheamicin binding with increasing concentration; also recorded: increased with increasing concentration
actual fold reduction considering background ([3]; cetuximab-calicheamicin coated plates): around 3.3 fold

B5: TF7 (protein)
chain: QVQLQESGGGLAQPGGSLRVSCATSGFTFSSNYYISWVRQAPGRGLEWVSAINTGDGSTYYAHSVKGRFTISRDNAKNTLYLQMNSLKPEDTALYYCARSSLEGRIEKPYDYWGQGTQVTVSS
modifications: TF7 clone
binding to trastuzumab deruxtecan (Trastuzumab deruxtecan): concentration-dependent binding

Reference: patent US12624123B2, “Compositions and methods for reducing off-target toxicity of antibody drug conjugates” (The Research Foundation for The State University of New York, priority 2019, dated 2026)
